Assay results taken from publication PMC3553976.

Tests used:
U2AF65 RRM123;SF1 1-260 [1] = target: T1, U2AF65 RRM123;SF1 1-260 (Homo sapiens;Homo sapiens, UniProt P26368;Q15637 147-475;1-260, |); test: SAXS
U2AF65 RRM123;SF1 1-260 [2] = target: T1, U2AF65 RRM123;SF1 1-260; test: EMSA
[3] = target: U2AF65 RRM123;SF1 2-320 delta-linker (Homo sapiens;Homo sapiens?, UniProt P26368;Q15637 147-475;2-320, |del75-90); test: EMSA
U2AF65 RRM123 = U2AF65 RRM123 (Homo sapiens, UniProt P26368 147-475); test: EMSA
U2AF65 RRM123;SF1 2-320 = U2AF65 RRM123;SF1 2-320 (Homo sapiens;Homo sapiens?, UniProt P26368;Q15637 147-475;2-320, |); test: EMSA
[4] = target: U2AF65 RRM123;SF1 2-320 delta-alpha1 (Homo sapiens;Homo sapiens?, UniProt P26368;Q15637 147-475;2-320, |del35-68); test: EMSA

Measured: binding result

U2AF65 RRM123, sequence (P26368 147-475, one chain of several): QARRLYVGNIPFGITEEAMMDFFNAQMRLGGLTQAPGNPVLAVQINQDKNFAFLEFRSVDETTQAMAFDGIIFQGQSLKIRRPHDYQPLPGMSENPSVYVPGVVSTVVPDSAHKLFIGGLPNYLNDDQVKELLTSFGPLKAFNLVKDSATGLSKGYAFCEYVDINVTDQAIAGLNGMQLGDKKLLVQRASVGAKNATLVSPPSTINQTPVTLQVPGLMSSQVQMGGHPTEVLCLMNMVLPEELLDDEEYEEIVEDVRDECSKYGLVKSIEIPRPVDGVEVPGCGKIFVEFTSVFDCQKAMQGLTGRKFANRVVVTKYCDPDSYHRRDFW

UAUACUAACAAUUUUUUUUU (ssRNA) [20-mer BPS-Py tract RNA]
binds: U2AF65 RRM123;SF1 1-260 [1]

GGUCAUACUAACCCUGUCCCUUUUUUUUCCACAGC (ssRNA) [3'-splice site RNA (AdML intron 1, consensus BPS)]
not listed: U2AF65 RRM123;SF1 1-260 [1]
binds: all other assays above
